In US20220111022A1 (IMMATICS BIOTECHNOLOGIES, published 2022) one finds peptide exchange yield data, which are given here for 42 molecules.

The target in the assay is T1, HLA-A*02:01 (human).
T1 construct: MHC monomers first loaded with a UV-sensitive peptide (not identified) that is cleaved and exchanged for the test peptide; captured on streptavidin-coated plates and detected with anti-β2m; also called peptide-receptive MHC molecules; MHC class I
In words: UV-ligand exchange, anti-b2m ELISA; peptide exchange yield grade. From the text:
Candidate peptides for T cell based therapies according to the present invention were further tested for their MHC binding capacity (affinity). The individual peptide-MHC complexes were produced by UV-ligand exchange, where a UV-sensitive peptide is cleaved upon UV-irradiation and exchanged with the peptide of interest as analyzed. Only peptide candidates that can effectively bind and stabilize the peptide-receptive MHC molecules prevent dissociation of the MHC complexes. To determine the yield of the exchange reaction, an ELISA was performed based on the detection of the light chain (β2m) of stabilized MHC complexes. The assay was performed as generally described in Rodenko et al. (Rodenko et al., 2006).
96 well MAXISorp plates (NUNC) were coated over night with 2 μg/ml streptavidin in PBS at room temperature, washed 4× and blocked for 1 h at 37° C. in 2% BSA containing blocking buffer. Refolded HLA-A*02:01/MLA-001 monomers served as standards, covering the range of 15-500 ng/ml. Peptide-MHC monomers of the UV-exchange reaction were diluted 100-fold in blocking buffer. Samples were incubated for 1 h at 37° C., washed four times, incubated with 2 μg/ml HRP conjugated anti-β2m for 1h at 37° C., washed again and detected with TMB solution that is stopped with […]. Absorption was measured at 450 nm. Candidate peptides that show a high exchange yield (preferably higher than 50%, most preferred higher than 75%) are generally preferred for a generation and production of antibodies or fragments thereof, and/or T cell receptors or fragments thereof, as they show sufficient avidity to the MHC molecules and prevent dissociation of the MHC complexes.
For orientation: ELISA stands for enzyme-linked immunosorbent assay.

B1: YLADFSHAT (peptide)
peptide: YLADFSHAT
For B1, the peptide exchange yield is at least 75%.

B2: ALDSSLQLL (peptide)
peptide: ALDSSLQLL
The molecule B2 showed a peptide exchange yield of at least 75%.

B3: YLHGFDLSL (peptide)
peptide: YLHGFDLSL
Turning to B3, the peptide exchange yield is at least 75%.

B4: ALDSTNSEL (peptide)
peptide: ALDSTNSEL
In turn, B4 displayed a peptide exchange yield of at least 75%.

B5: KILDFTGPLFL (peptide)
peptide: KILDFTGPLFL
B5 gave a peptide exchange yield of at least 75%.

B6: LLDDQTVTF (peptide)
peptide: LLDDQTVTF
For B6, the peptide exchange yield was in the range of 50 to 75%.

B7: FISDFTMTI (peptide)
peptide: FISDFTMTI
B7: the peptide exchange yield is at least 75%.

B8: VLDGTEVNL (peptide)
peptide: VLDGTEVNL
The molecule B8 gave a peptide exchange yield of at least 75%.

B9: LLDITNPVL (peptide)
peptide: LLDITNPVL
B9 returned a peptide exchange yield of at least 75%.

B10: KLAPEDLADLTAL (peptide)
peptide: KLAPEDLADLTAL
Turning to B10, the peptide exchange yield was at least 75%.

B11: SMASFLKDV (peptide)
peptide: SMASFLKDV
For B11, the peptide exchange yield is at least 75%.

B12: YLGAVFDL (peptide)
peptide: YLGAVFDL
Molecule B12 yielded a peptide exchange yield of at least 75%.

B13: GLDRTQLVNV (peptide)
peptide: GLDRTQLVNV
On to B13, for which the peptide exchange yield was at least 75%.

B14: RLQDTTIGL (peptide)
peptide: RLQDTTIGL
In the case of B14, the peptide exchange yield is at least 75%.

B15: AVDKTQTSV (peptide)
peptide: AVDKTQTSV
On to B15, for which the peptide exchange yield lay in the range of 50 to 75%.

B16: FLKDVTAQI (peptide)
peptide: FLKDVTAQI
In turn, B16 had a peptide exchange yield of at least 75%.

B17: YLDGTFRLL (peptide)
peptide: YLDGTFRLL
The molecule B17 yielded a peptide exchange yield of 50 to 75%.

B18: VLKDGTLVI (peptide)
peptide: VLKDGTLVI
As to B18, the peptide exchange yield was in the range of 20 to 50%.

B19: AIDQTITEA (peptide)
peptide: AIDQTITEA
B19: the peptide exchange yield was 50 to 75%.

B20: SLDDSLNEL (peptide)
peptide: SLDDSLNEL
Consider B20, for which the peptide exchange yield lay within 50 to 75%.

B21: KMLDETVLV (peptide)
peptide: KMLDETVLV
B21 yielded a peptide exchange yield of 50 to 75%.

B22: SLLDENDVSSYL (peptide)
peptide: SLLDENDVSSYL
As to B22, the peptide exchange yield was at least 75%.

B23: YLWWVNDQSL (peptide)
peptide: YLWWVNDQSL
B23 returned a peptide exchange yield of at least 75%.

B24: SLFIDVTRV (peptide)
peptide: SLFIDVTRV
Regarding B24, the peptide exchange yield is at least 75%.

B25: NLLDHSSMFL (peptide)
peptide: NLLDHSSMFL
Regarding B25, the peptide exchange yield was at least 75%.

B26: KLHDTSFCL (peptide)
peptide: KLHDTSFCL
Consider B26, for which the peptide exchange yield was at least 75%.

B27: ALMDVSQNV (peptide)
peptide: ALMDVSQNV
B27 registered a peptide exchange yield of at least 75%.

B28: ALADLTGTV (peptide)
peptide: ALADLTGTV
Consider B28, for which the peptide exchange yield was at least 75%.

B29: KLDASLPAL (peptide)
peptide: KLDASLPAL
Molecule B29 gave a peptide exchange yield of at least 75%.

B30: RLLDETVDVTI (peptide)
peptide: RLLDETVDVTI
Consider B30, for which the peptide exchange yield was at least 75%.

B31: KLAPDLTEL (peptide)
peptide: KLAPDLTEL
Turning to B31, the peptide exchange yield lay in the range of 50 to 75%.

B32: FLNPDGSDCTL (peptide)
peptide: FLNPDGSDCTL
In the case of B32, the peptide exchange yield was at least 75%.

B33: ILLDKSTVL (peptide)
peptide: ILLDKSTVL
B33 showed a peptide exchange yield of at least 75%.

B34: FLNVDVSEV (peptide)
peptide: FLNVDVSEV
With B34, the peptide exchange yield was at least 75%.

B35: ILFDPDNSSAL (peptide)
peptide: ILFDPDNSSAL
The molecule B35 registered a peptide exchange yield of at least 75%.

B36: ALAGLVYDA (peptide)
peptide: ALAGLVYDA
For B36, the peptide exchange yield was at least 75%.

B37: SLLRDFTLV (peptide)
peptide: SLLRDFTLV
For B37, the peptide exchange yield was at least 75%.

B38: NLLADVSTV (peptide)
peptide: NLLADVSTV
On to B38, for which the peptide exchange yield fell in the range of 50 to 75%.

B39: NLADNTILV (peptide)
peptide: NLADNTILV
For the molecule B39, the peptide exchange yield was at least 75%.

B40: KLLDGSQRV (peptide)
peptide: KLLDGSQRV
B40 came in with a peptide exchange yield of 50 to 75%.

B41: LLDTTDVYL (peptide)
peptide: LLDTTDVYL
Molecule B41 gave a peptide exchange yield of 50 to 75%.

B42: NMYDLTFHV (peptide)
peptide: NMYDLTFHV
On to B42, for which the peptide exchange yield was at least 75%.
